The numbers were not newly measured in US7547701B2, “Haloalkyl containing compounds as cysteine protease inhibitors” (Virobay, Inc., priority 2003, dated 2009), which cites them from elsewhere.

The conditions of this series: in clinical trials.

As for “OKT3: murine monoclonal antibody directed towards CD-3 domain of activated T-cells”, the “patients administered OKT3 that produce antibodies versus the therapy” value is 20-40%.
